Measured values reported in patent US20200354430A1 (OPKO BIOLOGICS, published 2020).
Values belong to the molecule of their own block, whether it stands above or below them.

What was measured:
MOD-5014/TF complex [1] = biological target: MOD-5014/TF complex (UniProt P13726); assay: cell-based or functional assay
[2] = system: MOD-5014 (activated CTP-modified human Factor VII, FVIIa-CTP3)
MOD-5000/TF complex [3] = biological target: MOD-5000/TF complex (UniProt P08709)
MOD-5014/TF complex [4] = biological target: MOD-5014/TF complex (UniProt P13726)
[5] = biological target: MOD-5000 (commercial recombinant hFVIIa, NovoSeven) (UniProt P08709)
MOD-5000/TF complex [6] = biological target: MOD-5000/TF complex (UniProt P08709); assay: cell-based or functional assay
[7] = biological target: T1, Tissue factor (TF), P13726
T1 chain: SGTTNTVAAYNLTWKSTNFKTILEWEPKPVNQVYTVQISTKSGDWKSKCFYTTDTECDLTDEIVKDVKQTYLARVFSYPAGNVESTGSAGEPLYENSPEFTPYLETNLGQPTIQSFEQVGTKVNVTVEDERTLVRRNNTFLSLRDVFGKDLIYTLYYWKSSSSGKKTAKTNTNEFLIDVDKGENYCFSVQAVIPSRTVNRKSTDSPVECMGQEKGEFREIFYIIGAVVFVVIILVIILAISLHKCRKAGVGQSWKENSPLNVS

[8] = biological target: T2, MOD-5014 (activated CTP-modified human Factor VII, FVIIa-CTP3) (human, UniProt P08709 61-212, O-glycans on the CTP serines, sialylated; N-glycans (positions not given); gamma-carboxyglutamic acid (Gla) residues (highly gamma carboxylated; positions not given)); assay: titration of FVIIa (0-2 nM) on fixed TF (10 pM), read out as rate of FX activation (Pefachrome FXa)
T2 construct: also called FVIIa-CTP-CTP-CTP; FVIIa-3*CTP
T2 sequence (light): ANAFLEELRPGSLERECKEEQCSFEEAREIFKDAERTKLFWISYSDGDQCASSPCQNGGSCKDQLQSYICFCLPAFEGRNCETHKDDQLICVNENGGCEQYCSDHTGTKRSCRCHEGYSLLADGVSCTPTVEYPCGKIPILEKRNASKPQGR
T2 sequence (heavy): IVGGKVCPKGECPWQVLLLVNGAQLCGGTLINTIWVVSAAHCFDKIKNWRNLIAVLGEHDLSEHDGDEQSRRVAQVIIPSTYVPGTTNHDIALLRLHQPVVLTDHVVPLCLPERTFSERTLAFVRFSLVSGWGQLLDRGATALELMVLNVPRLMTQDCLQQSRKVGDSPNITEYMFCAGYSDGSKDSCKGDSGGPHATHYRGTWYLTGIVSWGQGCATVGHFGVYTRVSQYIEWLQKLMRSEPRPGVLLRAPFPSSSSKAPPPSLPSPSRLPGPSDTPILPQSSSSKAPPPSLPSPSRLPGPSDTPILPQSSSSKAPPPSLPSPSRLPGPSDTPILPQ
From the text: Cleavage of synthetic substrate is converted to FXa concentration by a standard curve.

Molecule: Factor X (FX)
- Km of FX activation by lipid-bound FVIIa without TF [2]: 0.848 µM
- Vmax of FX activation by lipid-bound FVIIa without TF [2]: 0.115 nM FXa/min
- rate of FX activation on a lipid surface in the absence of TF relative to MOD-5000 [2]: The rate of FX activation on a lipid surface in the absence of TF is lower for MOD-5014 (45%) relative to MOD-5000
- Km of FX activation by FVIIa/TF (MOD-5000/TF complex [3]): 0.14 µM
- Vmax of FX activation by FVIIa/TF as a function of FX concentration (MOD-5000/TF complex [3]): 1.78 nM FXa/min
- Km of FX activation by FVIIa/TF (MOD-5014/TF complex [4]): 0.12 µM
- Vmax of FX activation by FVIIa/TF as a function of FX concentration (MOD-5014/TF complex [4]): 1.64 nM FXa/min
- turnover of FX relative to MOD-5000 (MOD-5014/TF complex [4]): When bound to TF, MOD-5014 had a slightly reduced turnover of FX (92%) relative to MOD-5000
- Km of FX activation by lipid-bound FVIIa without TF [5]: 0.878 µM
- Vmax of FX activation by lipid-bound FVIIa without TF [5]: 0.253 nM FXa/min

B1: MOD-5014 (activated CTP-modified human Factor VII, FVIIa-CTP3) (protein)
chain 1: ANAFLEELRPGSLERECKEEQCSFEEAREIFKDAERTKLFWISYSDGDQCASSPCQNGGSCKDQLQSYICFCLPAFEGRNCETHKDDQLICVNENGGCEQYCSDHTGTKRSCRCHEGYSLLADGVSCTPTVEYPCGKIPILEKRNASKPQGR
chain 2: IVGGKVCPKGECPWQVLLLVNGAQLCGGTLINTIWVVSAAHCFDKIKNWRNLIAVLGEHDLSEHDGDEQSRRVAQVIIPSTYVPGTTNHDIALLRLHQPVVLTDHVVPLCLPERTFSERTLAFVRFSLVSGWGQLLDRGATALELMVLNVPRLMTQDCLQQSRKVGDSPNITEYMFCAGYSDGSKDSCKGDSGGPHATHYRGTWYLTGIVSWGQGCATVGHFGVYTRVSQYIEWLQKLMRSEPRPGVLLRAPFPSSSSKAPPPSLPSPSRLPGPSDTPILPQSSSSKAPPPSLPSPSRLPGPSDTPILPQSSSSKAPPPSLPSPSRLPGPSDTPILPQ
- Vmax of FX activation at saturation of TF with FVIIa [7]: 1.3 nM FXa/min
- k2, rate of Pefachrome FVIIa substrate cleavage by the VIIa/TF complex (mol pNA/min/mol VIIa/TF) [7]: 357

B2: Tissue factor (TF) (receptor, UniProt P13726 33-295, looked up)
chain: SGTTNTVAAYNLTWKSTNFKTILEWEPKPVNQVYTVQISTKSGDWKSKCFYTTDTECDLTDEIVKDVKQTYLARVFSYPAGNVESTGSAGEPLYENSPEFTPYLETNLGQPTIQSFEQVGTKVNVTVEDERTLVRRNNTFLSLRDVFGKDLIYTLYYWKSSSSGKKTAKTNTNEFLIDVDKGENYCFSVQAVIPSRTVNRKSTDSPVECMGQEKGEFREIFYIIGAVVFVVIILVIILAISLHKCRKAGVGQSWKENSPLNVS
- Kd [8]: 3 pM

More lines, now with the values ahead:

- sensitivity to TFPI inhibition of FXa generation relative to MOD-5000 (MOD-5014/TF complex [1]): 124%
Molecule: tissue factor pathway inhibitor (TFPI) (from UniProt P10646 29-304)

- k, rate constant of loss of FVIIa/TF activity with AT and heparin (MOD-5000/TF complex [6]): 0.354 min⁻¹
- k, rate constant of loss of FVIIa/TF activity with AT and heparin (MOD-5014/TF complex [1]): 0.217 min⁻¹
- rate of inhibition by AT relative to MOD-5000 (MOD-5014/TF complex [1]): 62%
Molecule: anti-thrombin (AT) (from UniProt P01008 33-464)
